In paper PMC9195047 (The Journal of Experimental Medicine, 2022):

Tests used:
[1] = target: VEEV TC-83 structural proteins (capsid-p62-6K-E1) displayed on Expi293F cells (Venezuelan equine encephalitis virus, …, UniProt P05674, strain); experiment: flow cytometry on cells
[2] = target: CHIKV 181/25 structural proteins on infected Vero cells (Chikungunya virus, 181/25, UniProt Q88628, strain); experiment: flow cytometry on cells

B1: hVEEV-63 (human anti-VEEV monoclonal antibody, IgG1) (antibody, V domains shown)
VH: QVQLVQSGAEVKKPGASVKVSCKSSGYTFTNYIIHWVRQAPGQRLEWMGWINAGNGNTKYSQKFQGRISVTRDTSASAAYMELSSLKSEDTALYYCATLQMDYGGNGDLDYWGQGTLVTVSS
VL: YELTQPPSVSVSPGQTARITCSGDALPKQYVYWYQQKPGQAPVLVIYKDSERPSGIPERFSGSSSGTTVTLTISGVQAEDDADYYCQAADSSNTEYVFGTGTKVTVL
- binding result [1]: binds
- binding result [2]: no binding (tested: 10 µg/ml)
